Experimental data taken from the domain aggregation screens of Martell et al. (2025).

Test: soluble fraction after stress (log2 fold change); higher = more stays soluble; pooled small domains, quantitative proteomics
Conditions: stress: pH 4
Procedure, shortened: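 Pooled custom libraries of small protein domains were stressed at pH 4 and then measured by high-throughput quantitative proteomics. The fold change in the amount of each domain that stays soluble after the acid stress serves as a measure of aggregation propensity. Fold changes are given on a log2 scale, and higher values mean more of the domain stayed soluble.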

Sequence | soluble fraction (log2)
HMESADEESNALMYDGLLAMRGKRYEVALEFFDALVKHDPDFAEGWNKRATVLYLLGRYERSIADIKQVLA | -0.0176
HMLRQRVFRIIQNNINSKNYFVYTKQILAELAGISMRSLNRTLSELQNDRLIIVDSGTIRLFT | -0.824
HMSDQIQQIAERIAGLRDIAGYSVEELARELGISAEEYKRYESGEVDIPIGFLYKLANKYNVELTAILT | -1.02
HMNVVINNELVSLMVEAMKDGVSSKSIQEEFEGYKISGKTITKKVLTAHVNKALEVFADMQE | -0.477
HMNVEATAETLLALLKKNGGSLPFGDKSDPEAIQSQLKMSKKTFKKAAGTLFKKKLVRIEDHGIFL | 0.0517
HMNENNFIVAMRERLAQFIETSGTSQSRIAKELGVSKSTVSLFLGGTYGGNNQELARNLEQLLSMGAARR | 0.212
HMPSGRIRWFDAKKGYGFIAGDDGKDVFLPQTALPQGVRNPRKGAKVEYSVIEGNRGQVAMGVTMV | 0.0307
HMQRAEQLPAELAAVFRAETEAWGFFERQPPGYQRVAIHWVASAKQEATRLRRLAKLIEESAAGRR | -1.43
HMVPTVSVDRDDTLRFEGRPVDWDVLKRELGAVAGIDELKIYADAKVSALTVSKIMKSASEAGVLQFILVT | -0.334
HMDFMNSEIKKIVEDLKLTLQSLNYTKNEIKSILPVINKETDNLIKKEKYASFENLLRLAMNHLDNN | -0.929
HMSDFDPTLILDLIKGSGEALTKREIARALGIKGGDKRIELKSHLKSMEAEGVIVKQAGGAYSVP | -0.00302
HMDFEEGAVKWFNTKKGYGFITRDQGDDIFVHFRNIKAQSRRSLTDGERVTFVVTEGDKGLQADHVSPV | -0.886
HMGLVDSLEPLLRRVYEALPQRRSMTTERLAVAAGLDEESVKVALARLQLSAFVGVDERGWHRSL | -0.0455
HMLIELKIPSEWAGKSLHTLNLRQNYNVNVIGFRDEKSGKLNTHFDPSKKLPDEGIILVVADNRTLEKF | -0.451
HMGDLLTVDRVAATSGLGVDTIRYYQRLGLLDPPVRHGRRALYSTAHLDRLVEIRQLADEGFSLAQIATL | -0.816
HMLENSLDHIEGIGPKTKDTLLTYFKSVSKIKSANPSILAELIGAAKTKILLAAFEKEKTTS | 0.17

Sequence | soluble fraction (log2)
HMAPRASDALTERELDVLRVVADGASVAEAAEMLVVSRETVKKHLGNIYAKLGVHSKMQAVALLREEGV | -1.27
HMSGGIVRLAVKPWGEVFVDGASRGITPPLKQLTLDAGVHRIEIRNPAGPSWTKDVDVVAGQPTTVSHRF | 0.0131
HMISQLRGKVLGTDRDALVIDVGGVGFRVSATAGARALAGQSGNEARLFTEMVVREDSIDLFGF | -0.245
HMRTLSAGVAGRLRADILNGLLEPGRRLGMAELTERYGAGMSPVREALSRLVGEGLVQSEGQRGFRVA | 0.199
HMSPLALLTPRELDILRAMTAGASNKEIARQFAIAETTVKIHVQHILRKLDVTTRVHAAVMASESGL | -1.09
HMNNLVTRREVEILGWIKEGKTTSDIAGILSLSPFTVKNHVQNILKKLGARSRSHAVAQAINLGLLH | -0.446
HMISDQENDLNLKHLFDTADQNKDGLILESELKMLMTNLEINKETYDTVMKQITPAGMDYKTFSSL | -0.584
HMDAIAYLGSRLKEIRLKSGLSLREIARQLDVSPSFISQIENGKSQPSVATLYAFAKLLNVPVDVLFQPS | -0.455
HMGNLIIFYDAQTGSAPLLKAVKTSGATLVYEYKNLHGIAIRPSSKTSIEDAIAYFKKVNGVLSVE | 0.0783
HMLPRNKRIEIALTYIYGLGRHAATVVLKHANISPDKRTDDLDENDVRKLRDAIDANFRVEGDLRR | -0.0555
HMNALREVNTSILNVRSGAGTNYSKIGSLTQATRVSVISESNGWSKINYNGKVGYVSSQYLS | ≥ 0.43
HMKVELSENEKIIYDLLSNQEVLLSEIKDKAELSNKAWDKSTKSLRKLGLVIVEKKDDNIYISKS | 0.368
HMGAGLDDLVRKSLHNAGLKADDNVVSWISGNLGSDRMVSRMELEKLVLFVAGQSEITLEDAQAVIGD | -0.374
HMKVIAEESYRILVDAIEKLPPQMKSIMQLALEGKSNPEIAETLNISGETVHSQKKIAYRKLRVYLKD | -0.144
HMREGRERRLSQLLSYLRTHHILTRSEYVKLTGLSPTAASSELKTFVTAGHIVRKGIASHSTYRLPH | 0.00826
